The test deals with T1, 3′hExofl (human, UniProt Q8IV48 1-349).
T1 chain: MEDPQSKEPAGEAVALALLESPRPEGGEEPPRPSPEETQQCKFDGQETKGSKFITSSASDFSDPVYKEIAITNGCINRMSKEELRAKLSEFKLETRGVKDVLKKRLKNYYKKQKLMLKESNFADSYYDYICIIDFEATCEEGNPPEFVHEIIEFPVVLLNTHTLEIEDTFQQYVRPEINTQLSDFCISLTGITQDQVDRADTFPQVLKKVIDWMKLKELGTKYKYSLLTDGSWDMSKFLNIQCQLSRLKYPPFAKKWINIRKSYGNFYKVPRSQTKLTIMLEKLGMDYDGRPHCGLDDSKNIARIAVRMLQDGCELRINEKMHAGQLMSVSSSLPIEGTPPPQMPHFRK
Put plainly: NMR.

What is called Kd is a measure of binding affinity in units of concentration.

B1: UPF2-AL (domain or fragment)
chain: NDKDSKDSMTEGENLEEDEEEEEGGAETEEQSGNESEVNEPEEEEGSDNDDDEGEEEEEENTDYLTDSNKENETDEENTEVMIKGGGLKH
Regarding B1, the Kd came to 200 µM.

The values are drawn from PMC12775136 (2025).
